US20210107983A1 (Boehringer Ingelheim, published 2021)
Blank lines part the entries; values can stand above or below the binder they belong to.

Key:
[1] = biological target: T1, Fc-His-tagged human B7H6 ECD (human); assay: ELISA, plate coated with Fc-His-tagged human B7H6 ECD, anti-human IgG F(ab')2-peroxidase, TMB
T1 construct: also called huB7H6-ECD-Fc-His; recombinant human B7H6 ECD
Procedure: (§1) To assess binding of B7H6/CD3 binding proteins to recombinant human Fc-His-tagged B7H6 ECD and human Fc-His-tagged Ala-mutated B7H6 extracellular proteins as described in Example 3, MediSorp™ plates (Nunc, 467320) were coated with […] recombinant proteins overnight at 4° C. The next day, plates were blocked with 0.5% bovine serum albumin (BSA) in phosphate buffered saline (PBS) for 1 hour at room temperature (RT). Subsequently plates were washed with […] containing 0.05% TWEEN®20 viscous liquid and B7H6/CD3 binding proteins were incubated at concentrations ranging from 0.00001 to 10 μg/ml. After an additional washing step, bound B7H6/CD3 binding proteins were detected by a peroxidase conjugated goat anti-human IgG F(ab′)₂-specific secondary antibody (Jackson Immunoresearch) and visualized by TMB substrate solution (Bender Med Systems).

[2] = biological target: T2, human B7H6 on HCT-15 cells (human, UniProt Q68D85 25-454); assay: cell-based or functional assay
T2 sequence (looked up): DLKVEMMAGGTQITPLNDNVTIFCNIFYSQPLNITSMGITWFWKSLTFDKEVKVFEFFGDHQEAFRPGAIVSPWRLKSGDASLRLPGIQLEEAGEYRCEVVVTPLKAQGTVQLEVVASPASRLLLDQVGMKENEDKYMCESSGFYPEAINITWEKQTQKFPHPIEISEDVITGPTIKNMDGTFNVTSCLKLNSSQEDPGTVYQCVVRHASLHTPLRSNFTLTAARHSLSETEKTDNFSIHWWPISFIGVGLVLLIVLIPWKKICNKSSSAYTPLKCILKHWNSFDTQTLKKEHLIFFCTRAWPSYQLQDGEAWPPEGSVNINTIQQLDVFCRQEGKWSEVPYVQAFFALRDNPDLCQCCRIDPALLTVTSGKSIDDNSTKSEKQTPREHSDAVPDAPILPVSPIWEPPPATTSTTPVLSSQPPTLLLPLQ

[3] = biological target: T3, Fc-His-tagged human Ala-mutated B7H6 ECD (human); assay: ELISA, plate coated with Fc-His-tagged human Ala-mutated B7H6 ECD, anti-human IgG F(ab')2-peroxidase, TMB
T3 construct: also called huB7H6-Ala-ECD
Procedure: as §1

[4] = biological target: T2, human B7H6 on HCT-15 cells; assay: flow cytometry on HCT-15 cells, PE anti-human secondary antibody
Procedure: Binding of B7H6/CD3 binding proteins to HCT-15, a human (colo-rectal cancer) CRC cell line was tested by flow cytometry. In a previous experiment, it has been confirmed that HCT-15 cells expresses B7-H6 on the RNA levels as well as the protein level with approximately 8,000 B7-H6 receptors on the cell surface (data not shown). B7H6/CD3 binding proteins were produced, as described in Example 2. HCT-15 cells were stained with increasing concentrations of two-step purified B7H6/CD3 binding proteins in FACS buffer (PBS/0.5% BSA/0.05% sodium azide). Bound molecules were detected with PE-conjugated anti-human secondary antibody (Sigma-Aldrich, #P8047).

EC50 (read off the curve) [1]: ~0.05 µg/mL
binding result [3]: no binding (tested: 10 µg/ml)
B1: B7H6#6/CD3#1 (bispecific antibody, human IgG1, kappa, lambda, L234A L235A)
chain 1: DIVMTQSPDSLPVSAGDRVTITCKASQSVSNDVVWYQQKPGQSPKLLMYSTSNRYIGVPDRFTGSGYGTDFTFTISTVQAEDLAVYFCQQDYSSPYTFGGGTKLEIKRTVAAPSVFIFPPSDEQLKSGTASVVCLLNNFYPREAKVQWKVDNALQSGNSQESVTEQDSKDSTYSLSSTLTLSKADYEKHKVYACEVTHQGLSSPVTKSFNRGECGGGGSEGKSSGSGSESKSTEGKSSGSGSESKSTGGGGSEVQLQQSGPELLKPGASVKISCKTSGYTFTDYTMHWVKQSHGKSLEWIGGINPNYDNTGYSEKFKDKATLTVDKSSSTAYMELRSLTSEDSAVYYCTRSGSRRSFYFDYWGQGTTLTVSSASTKGPSVFPLAPSSKSTSGGTAALGCLVKDYFPEPVTVSWNSGALTSGVHTFPAVLQSSGLYSLSSVVTVPSSSLGTQTYICNVNHKPSNTKVDKRVEPKSCDKTHTCPPCPAPEAAGGPSVFLFPPKPKDTLMISRTPEVTCVVVDVSHEDPEVKFNWYVDGVEVHNAKTKPREEQYNSTYRVVSVLTVLHQDWLNGKEYKCKVSNKALPAPIEKTISKAKGQPREPQVYTLPPSREEMTKNQVSLWCLVKGFYPSDIAVEWESNGQPENNYKTTPPVLDSDGSFFLYSKLTVDKSRWQQGNVFSCSVMHEALHNHYTQKSLSLSPG
chain 2: EAVVTQEPSLTVSPGGTVTLTCRSSTGAVTTSNYANWVQEKPGQLPRGLIGGTNKRAPWVPARFSGSLLGGKAALTLSGAQPEDEAEYFCALWYSNLWVFGGGTKLTVLGQPKAAPSVTLFPPSSEELQANKATLVCLISDFYPGAVKVAWKADGSPVNTGVETTTPSKQSNNKYAASSYLSLTPEQWKSHRSYSCQVTHEGSTVEKTVAPAECSGGGGSEGKSSGSGSESKSTEGKSSGSGSESKSTGGGGSEVQLVESGGGLVQPGGSLKLSCAASGFTFNTYAMNWVRQAPGKGLEWVARIRSKYNNYATYYADSVKDRFTISRDDSKNTAYLQMNNLKTEDTAVYYCVRHGNFGNSYVSWFAYWGQGTLVTVSAASTKGPSVFPLAPSSKSTSGGTAALGCLVKDYFPEPVTVSWNSGALTSGVHTFPAVLQSSGLYSLSSVVTVPSSSLGTQTYICNVNHKPSNTKVDKRVEPKSCDKTHTCPPCPAPEAAGGPSVFLFPPKPKDTLMISRTPEVTCVVVDVSHEDPEVKFNWYVDGVEVHNAKTKPREEQYNSTYRVVSVLTVLHQDWLNGKEYKCKVSNKALPAPIEKTISKAKGQPREPQVYTLPPSREEMTKNQVSLSCAVKGFYPSDIAVEWESNGQPENNYKTTPPVLDSDGSFFLVSKLTVDKSRWQQGNVFSCSVMHEALHNRFTQKSLSLSPG
notes: scFab-Fc heterodimer, one B7H6 chain and one CD3 chain
EC50 [nM], 72 hour cytotoxicity assay, non-stimulated T-cells (Donor #1) as effector cells, HCT-15 cells as target cells [2]: 0.46 nM

EC50 (read off the curve) [1]: ~0.05 µg/mL
EC50 (read off the curve) [4]: ~0.4 nM
binding result [3]: no binding (tested: 10 µg/ml)
B2: B7H6#8/CD3#1 (bispecific antibody, human IgG1, kappa, lambda, L234A L235A)
chain 1: DIVMTQSPLSLPVTPGEPASISCRSSQSLLYNNRYNYLDWYLQKPGQSPEVLIYLGSNRASGVPDRFSGSGSGTDFTLKISRVEAEDFGVYYCMQTLQIPITFGQGTRLEIKRTVAAPSVFIFPPSDEQLKSGTASVVCLLNNFYPREAKVQWKVDNALQSGNSQESVTEQDSKDSTYSLSSTLTLSKADYEKHKVYACEVTHQGLSSPVTKSFNRGECGGGGSEGKSSGSGSESKSTEGKSSGSGSESKSTGGGGSQVQVVQSGAEVKKPGSSVKVSCKGSGDTLNSYGISWMRQAPGQGLEWMGGIIPIFDTTKYAQKFQGRVTITADKSTTTVYMELSSLRFEDTAVYYCARERGYRFSEDYYFYYGMDVWGQGTTVTVSSASTKGPSVFPLAPSSKSTSGGTAALGCLVKDYFPEPVTVSWNSGALTSGVHTFPAVLQSSGLYSLSSVVTVPSSSLGTQTYICNVNHKPSNTKVDKRVEPKSCDKTHTCPPCPAPEAAGGPSVFLFPPKPKDTLMISRTPEVTCVVVDVSHEDPEVKFNWYVDGVEVHNAKTKPREEQYNSTYRVVSVLTVLHQDWLNGKEYKCKVSNKALPAPIEKTISKAKGQPREPQVYTLPPSREEMTKNQVSLWCLVKGFYPSDIAVEWESNGQPENNYKTTPPVLDSDGSFFLYSKLTVDKSRWQQGNVFSCSVMHEALHNHYTQKSLSLSPG
chain 2: B1 chain 2
notes: as for B1
EC50 [nM], 72 hour cytotoxicity assay, non-stimulated T-cells (Donor #1) as effector cells, HCT-15 cells as target cells [2]: 0.62 nM
